Patent US20060115482A1, “Modifications of histone proteins as indicators of cell proliferation and differentiation” (The Regents of the University of California, priority 2004, published 2006)

Tested on: H2B-S33
Assay: In vitro kinase assay (γ32P-ATP, SDS-PAGE, autoradiography, scintillation counting)
Type: biochemical, Drosophila
Details: for Turnover values for phosphorylation of H2B-S33: 3 μg enzyme
Description: Kinase reactions were programmed with 1 μg RAP74, 1 μg recombinant histone, 2 μg polynucleosomes, 2 μg histone octamers, or 300 ng histone peptide, and contained 400 ng endogenous TFIID or 250 ng recombinant TAF1 derivatives and 0.25 μCi γ^32P-ATP. Reactions were performed in 20 μl kinase buffer (25 mM Hepes (pH 7.6), 10% glycerol, and 400 mM NaCl) for 25 min at 25° C. Reaction products were analyzed by SDS-PAGE using 8%—(for recombinant proteins), 15%—(for histones), or 18% (for peptides) gels. After electrophoresis, gels were dried and exposed to X-ray film.
To quantify kinase reactions, reactions products were separated by SDS-PAGE and detected by coomassie blue staining. Radiolabeled H2B was detected by autoradiography, excised from the gel, and analyzed by scintillation counting.
To measure the kinase activity of TFIID, TAF1, CTK, and mutant CTK-derivatives, reaction products of in vitro kinase assays were separated by SDS-PAGE and stained with coomassie blue. Radiolabeled H2B, H2BT and controls were excised from the gel and incorporation of radioactivity was determined by scintillation counting. Turnover values for phosphorylation of H2B-S33 were determined by measuring incorporation of radiolabeled phosphate groups into H2B in the presence of 3 μg TAF1, TFIID, or CTK-derivatives and 3 μg H2B or 12 μg nucleosomes. The turnover values were: TFIID (nucleosomes: 3.3/sec; H2B: 2.6/sec); TAF1: (nucleosomes: 2.5/sec; H2B: 2.5/sec); CTK: (nucleosomes: 2.6/sec; H2B: 4.4/sec).

| Substance | H2B phosphorylation in vitro (qualitative) (autoradiography) | kinase activity, % of the activity determined for TFIID, TAF1 and CTK (radiolabeled H2B, scintillation counting) | Turnover values for phosphorylation of H2B-S33 (substrate 3 μg H2B) | Turnover values for phosphorylation of H2B-S33 (substrate 12 μg nucleosomes) |
| --- | --- | --- | --- | --- |
| TAF1ΔCTK: TAF1 truncated by stop codon behind amino acid 1728, deleting the CTK downstream of the DBD | does not phosphorylate H2B in vitro | less than 0.1% |  |  |
| TAF1: subunit of TFIID that has kinase activity; recombinant Flag-tagged Drosophila protein |  |  | 2.5 s⁻¹ | 2.5 s⁻¹ |
